Data from PMC6993860 (Biochemical Journal, 2020).
Where two headings read alike, the source gives them in different places.

Experiments:
SEC [1] = target: the molecule itself; assay: SEC
SEC [2] = target: the molecule itself; assay: SEC; remark: listed apart in the source

B1: HtrA3 S305A (enzyme)
chain: LHQLSSPRYKFNFIADVVEKIAPAVVHIELFLRHPLFGRNVPLSSGSGFIMSEAGLIITNAHVVSSNSAAPGRQQLKVQLQNGDSYEATIKDIDKKSDIATIKIHPKKKLPVLLLGHSADLRPGEFVVAIGSPFALQNTVTTGIVSTAQREGRELGLRDSDMDYIQTDAIINYGNAGGPLVNLDGEVIGINTLKVTAGISFAIPSDRITRFLTEFQDKQIKDWKKRFIGIRMRTITPSLVDELKASNPDFPEVSSGIYVQEVAPNSPSQRGGIQDGDIIVKVNGRPLVDSSELQEAVLTESPLLLEVRRGNDDLLFSIAPEVVM
stoichiometry N (SEC [1]): 3

B2: HtrA3 F142A (enzyme)
chain: LHQLSSPRYKFNAIADVVEKIAPAVVHIELFLRHPLFGRNVPLSSGSGFIMSEAGLIITNAHVVSSNSAAPGRQQLKVQLQNGDSYEATIKDIDKKSDIATIKIHPKKKLPVLLLGHSADLRPGEFVVAIGSPFALQNTVTTGIVSTAQREGRELGLRDSDMDYIQTDAIINYGNSGGPLVNLDGEVIGINTLKVTAGISFAIPSDRITRFLTEFQDKQIKDWKKRFIGIRMRTITPSLVDELKASNPDFPEVSSGIYVQEVAPNSPSQRGGIQDGDIIVKVNGRPLVDSSELQEAVLTESPLLLEVRRGNDDLLFSIAPEVVM
stoichiometry N (SEC [2]): 3
